# Data published in IntAct's records for PubMed 32911434.
# B1: Nuclear factor erythroid 2-related factor 2 (Homo sapiens), Q16236 (parent)
# chain: MMDLELPPPGLPSQQDMDLIDILWRQDIDLGVSREVFDFSQRRKEYELEKQKKLEKERQEQLQKEQEKAFFAQLQLDEETGEFLPIQPAQHIQSETSGSANYSQVAHIPKSDALYFDDCMQLLAQTFPFVDDNEVSSATFQSLVPDIPGHIESPVFIATNQAQSPETSVAQVAPVDLDGMQQDIEQVWEELLSIPELQCLNIENDKLVETTMVPSPEAKLTEVDNYHFYSSIPSMEKEVGNCSPHFLNAFEDSFSSILSTEDPNQLTVNSLNSDATVNTDFGDEFYSAFIAEPSISNSMPSPATLSHSLSELLNGPIDVSDLSLCKAFNQNHPESTAEFNDSDSGISLNTSPSVASPEHSVESSSYGDTLLGLSDSEVEELDSAPGSVKQNGPKTPVHSSGDMVQPLSPSQGQSTHVHDAQCENTPEKELPVSPGHRKTPFTKDKHSSRLEAHLTRDELRAKALHIPFPVEKIINLPVVDFNEMMSKEQFNEAQLALIRDIRRRGKNKVAAQNCRKRKLENIVELEQDLDHLKDEKEKLLKEKGENDKSLHLLKKQLSTLYLEVFSMLRDEDGKPYSPSEYSLQQTRDGNVFLVPKSKKPDVKKN
# partner: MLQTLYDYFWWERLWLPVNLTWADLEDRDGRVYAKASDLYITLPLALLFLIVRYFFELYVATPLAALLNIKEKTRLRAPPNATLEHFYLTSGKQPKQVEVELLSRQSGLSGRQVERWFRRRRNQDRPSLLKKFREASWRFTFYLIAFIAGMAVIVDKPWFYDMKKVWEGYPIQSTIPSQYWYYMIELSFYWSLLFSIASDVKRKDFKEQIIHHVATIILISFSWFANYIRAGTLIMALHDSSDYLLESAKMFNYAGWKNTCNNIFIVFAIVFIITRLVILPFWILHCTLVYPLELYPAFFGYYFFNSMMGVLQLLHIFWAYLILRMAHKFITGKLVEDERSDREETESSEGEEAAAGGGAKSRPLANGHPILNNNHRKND
# B2: Nuclear factor erythroid 2-related factor 2 (Homo sapiens), Q16236 (parent)
# chain: B1 chain
# B3: Nuclear factor erythroid 2-related factor 2 (Homo sapiens), Q16236 (parent)
# chain: B1 chain
# partner: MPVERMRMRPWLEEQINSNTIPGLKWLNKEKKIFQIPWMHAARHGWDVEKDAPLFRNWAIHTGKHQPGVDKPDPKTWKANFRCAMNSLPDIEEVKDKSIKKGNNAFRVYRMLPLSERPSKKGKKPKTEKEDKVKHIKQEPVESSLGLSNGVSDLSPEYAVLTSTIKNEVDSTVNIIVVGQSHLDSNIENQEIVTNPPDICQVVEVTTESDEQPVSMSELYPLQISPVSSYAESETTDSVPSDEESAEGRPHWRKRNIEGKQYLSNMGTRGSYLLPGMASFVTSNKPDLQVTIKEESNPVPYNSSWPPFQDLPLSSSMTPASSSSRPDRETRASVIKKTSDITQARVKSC
# Variants of: B1
# Conditions: with cers2_human CERS2, Q96G23
row,effect of a mutation on the interaction,Variant
1,increasing interaction strength,Y576E

# Variants of: B2
# Conditions: with brpf3_human BRPF3, Q9ULD4
# brpf3_human BRPF3, Q9ULD4, sequence (Q9ULD4 whole entry): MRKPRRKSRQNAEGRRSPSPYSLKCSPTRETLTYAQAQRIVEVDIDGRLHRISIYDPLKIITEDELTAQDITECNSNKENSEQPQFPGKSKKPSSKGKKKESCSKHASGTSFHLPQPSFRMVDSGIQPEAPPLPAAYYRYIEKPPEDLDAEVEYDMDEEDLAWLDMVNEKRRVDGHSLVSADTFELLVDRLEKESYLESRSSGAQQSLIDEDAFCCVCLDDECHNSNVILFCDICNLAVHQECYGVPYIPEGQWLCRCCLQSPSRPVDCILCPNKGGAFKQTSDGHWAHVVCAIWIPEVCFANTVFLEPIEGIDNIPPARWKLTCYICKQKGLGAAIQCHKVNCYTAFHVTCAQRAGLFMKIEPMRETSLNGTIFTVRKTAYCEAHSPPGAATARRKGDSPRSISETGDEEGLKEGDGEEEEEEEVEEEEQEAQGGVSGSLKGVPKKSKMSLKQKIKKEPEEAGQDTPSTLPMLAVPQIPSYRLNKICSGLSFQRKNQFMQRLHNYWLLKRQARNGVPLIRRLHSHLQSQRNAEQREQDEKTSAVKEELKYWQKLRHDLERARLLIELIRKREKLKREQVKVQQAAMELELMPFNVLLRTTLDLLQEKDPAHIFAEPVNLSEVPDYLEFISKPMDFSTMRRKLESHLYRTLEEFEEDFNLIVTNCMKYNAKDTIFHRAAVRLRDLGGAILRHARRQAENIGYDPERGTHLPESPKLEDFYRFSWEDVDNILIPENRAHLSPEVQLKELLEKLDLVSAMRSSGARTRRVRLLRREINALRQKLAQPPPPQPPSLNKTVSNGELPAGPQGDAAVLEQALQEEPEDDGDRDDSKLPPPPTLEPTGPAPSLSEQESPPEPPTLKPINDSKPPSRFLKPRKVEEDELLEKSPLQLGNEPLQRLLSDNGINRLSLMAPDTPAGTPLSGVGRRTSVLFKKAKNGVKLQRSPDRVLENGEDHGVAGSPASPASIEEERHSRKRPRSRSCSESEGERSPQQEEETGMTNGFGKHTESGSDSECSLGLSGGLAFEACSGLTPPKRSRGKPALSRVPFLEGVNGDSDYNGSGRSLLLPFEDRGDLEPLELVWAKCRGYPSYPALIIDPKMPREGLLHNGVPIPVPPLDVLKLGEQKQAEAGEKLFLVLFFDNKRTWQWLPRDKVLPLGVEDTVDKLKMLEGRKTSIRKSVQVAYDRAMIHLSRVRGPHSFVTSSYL
row,Variant,effect of a mutation on the interaction
1,T559D,decreasing interaction strength
2,S408A,decreasing interaction strength

# Results, then the variant that gave them:
row,effect of a mutation on the interaction,Variant
1,decreasing interaction strength,Y576E
2,decreasing interaction strength,Y576F

# Variants of: B2
# Conditions: with ima1_human KPNA2, P52292
row,effect of a mutation on the interaction,Variant
1,decreasing interaction strength,T559D
2,decreasing interaction strength,Y576E

# Variants of: B2
# Conditions: with tf65_human RELA
row,effect of a mutation on the interaction,Variant
1,increasing interaction strength,S40D

# Variants of: B2
# Conditions: with apex1_human APEX1, P27695
# apex1_human APEX1, P27695, sequence (P27695 whole entry): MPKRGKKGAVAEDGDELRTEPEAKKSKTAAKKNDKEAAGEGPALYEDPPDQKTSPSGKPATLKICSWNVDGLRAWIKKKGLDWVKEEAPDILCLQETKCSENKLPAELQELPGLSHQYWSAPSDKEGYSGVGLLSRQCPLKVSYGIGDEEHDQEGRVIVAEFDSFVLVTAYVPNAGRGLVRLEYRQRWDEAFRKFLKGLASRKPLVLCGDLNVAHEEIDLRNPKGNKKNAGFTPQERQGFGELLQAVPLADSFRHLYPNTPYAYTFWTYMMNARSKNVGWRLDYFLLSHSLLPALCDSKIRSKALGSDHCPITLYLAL
row,effect of a mutation on the interaction,Variant
1,increasing interaction strength,S40D

# Variants of: B3
# Conditions: with irf2_human IRF2, P14316
row,Variant,effect of a mutation on the interaction
1,S408A,decreasing interaction strength
2,T559D,decreasing interaction strength

# Continued, values first:
row,effect of a mutation on the interaction,Variant
1,decreasing interaction strength,Y576F
2,decreasing interaction strength,Y576E
